B1: 单抗3C1 (anti-SARS-CoV-2 RBD mouse monoclonal antibody 3C1) (antibody, V domains shown)
VH: EVQLQESGPSLVKPSQTLSLTCSVTGDSITNGYWNWIRKFPGNKLEYMGYISYSGSTYYSPSLKSRISITRDTSKNQHYLQLNSVTSEDTATYYCASDYHGSKYYFDYWGQGTTLTVSS
VL: DIVMTQSHKFMSTSVGHRVSITCKASQDVGNDVAWYQQKPGQSPKLLIYWASTRHTGVPDRFTGSGSGTDFTLTISNVQSEDLADYFCQQYNRYPYTFGGGTKLEIK
B2: 单抗2H2 (anti-SARS-CoV-2 RBD mouse monoclonal antibody 2H2) (antibody, V domains shown)
VH: QVQLKQSGPSLVQPSQSLSITCTVSGFSLTSYGVHWVRQSPGKGLEWLGVMWRGGNTDYNAAFMSRLSITKDNSKSQVFFKMNSLQTDDTAIYYCAKNGGAHAMDFWGQGTSVTVSS
VL: NIVLTQSPASLAVSLGQRATISCRASESVDSYGNSFLHWYQQKPGQPPKLLIYLASNLESGVPARFSGSGSRTDFTLTIDPVEADDAATYYCQQNNEDPFTFGSGTKLEIK

Tests used:
[1] = target: SARS-CoV-2 S蛋白 (on MLV-based SARS-CoV-2 pseudovirus) (SARS-CoV-2, UniProt P0DTC2 14-1273); assay: cell-based or functional assay
[2] = target: 重组的SARS-CoV-2 RBD蛋白 (S蛋白320-550位残基, 组氨酸标签) (SARS-CoV-2, UniProt P0DTC2 320-550); assay: BLI (Octet RED96), His-tagged RBD on Ni-NTA sensor, antibody in solution

Row | Binder | 半数抑制浓度(IC50), SARS-CoV-2假病毒中和试验 (VeroE6, luciferase) [1] | Kd [2]
1 | B1 | 1.91 µg/mL | 13 nM
2 | B2 | 0.005 µg/mL | 7.5 nM
